In the nanobody polyreactivity screen of Harvey et al. (2022):

Assay: yeast display, Sf9 membrane polyspecificity reagent, FACS + sequencing; frameworks hold sequencing errors
Method in brief: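 After 36–48 hours of galactose induction, yeast (Saccharomyces cerevisiae BJ5465) displaying a synthetic nanobody library were stained at 4 °C for 1 hour with 10% biotinylated, detergent-solubilized Sf9 membrane reagent. Streptavidin microbeads enriched the stained cells before FACS sorting into low and high (top ~1%) gates on anti-HA and streptavidin fluorescence. Each clone's polyreactivity label reflects its gate of origin.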

Row | Sequence | polyreactivity (PSR sort gate)
1 | QVQLVESGGGLVQAGGSLRLSCAASGRTFKLNAMGWYRQAPGKERELVAAISRNGGSTYYADSVKGRFTISRDNAKNTVYLQMNSLKPEDTAVYYCAAVRHGVSLAGYYWGQGTQVTVSS | high polyreactivity
2 | QVQLVESGGGLVQAGGSLRLSCAASGRTFKLYGMGWYRQAPVKEREFVAAITQGGGSTFYADSVKGRFTISRDNSKNTVYLQMNSLKPEDTAVYYCAARTQIFSRYRGFYSWGQGTQVTVSS | high polyreactivity
3 | QVQLVESGGGLVQAGGSLRLSCAASGRTFKRNGMGWYRQAPGKERELVAAIRNTGSTKYADSVKGRFTISRDNAKNTVYLQMNSLKPEDTAVYYCNARVYEAQTYYYWGQGTQVTVSS | high polyreactivity
4 | QVQLVESGGGLVQAGGSLRLSCAASGRTFKRNPMGWYRQAPGKERELVAAISGTGSTNYADSVKGRFTISRDNAKNTVYLQMNSLKPEDSAVYYCNADIYSYRYPYVYWGQGTQVTVSS | low polyreactivity
5 | QVQLVESGGGLVQAGGSLRLSCAASGRTFKRYAMGWYRQAPGKERELVAAITRSGGSTYYADSVKGRFTISRDNAKNTVYLQMNSLKPEDTAVYYCATRSYNNELEYWGQGTQVTVSS | high polyreactivity
6 | QVQLVESGGGLVQAGGSLRLSCAASGRTFKSYAMGWYRQAPGKERELVAAISSSGGRTFYADSVKGRFTISRDNAKNTVYLQMNSLKPEDTAVYYCNARYCYRYGGYKPVGGYYWGQGTQVTVSS | high polyreactivity
7 | QVQLVESGGGLVQAGGSLRLSCAASGRTFKSYSMGWYRQAPGKERELVAAISWSGGSTYYADSVKGRFTISRDNAKNTVYLQMNSLKPEDTAVYYCAKRGYASGSKWDYGYWGQGTQVTVSS | high polyreactivity
8 | QVQLVESGGGLVQAGGSLRLSCAASGRTFKTYAMGWYRQAPGKERELVAAIDSGGNTYADSVKGRFTISRDNAKNTVYLQMNSLKPEDTAVYYCAVDGGEFSSYGYWGHGTQVTVSS | low polyreactivity
9 | QVQLVESGGGLVQAGGSLRLSCAASGRTFKWYAMGWYRQAPGKERELVAGISRGAGRTYYADSVKGRFTISRDNAKNTVYLQMNSLKPEDTAVYYCAAVPSYHSTSPFYYWGQGTQVTVSS | high polyreactivity
10 | QVQLVESGGGLVQAGGSLRLSCAASGRTFKWYPMGWYRQATGKERELVAGITSTGTTSYADSVKGRFTISRDNAKNTVYLQMNSLKPEDTAVYYCNTYYRWWKYDYWGQGTQVTVSS | high polyreactivity
11 | QVQLVESGGGLVQAGGSLRLSCAASGRTFKYNTMGWYRQAPGKEREFVAAINWSGGSTYSAASVKGRFTISRDNAKNTVYLQMNSLKPEDTAVYYCAARRVYLGEYDYWGQGTQVTVSS | high polyreactivity
12 | QVQLVESGGGLVQAGGSLRLSCAASGRTFKYYAMGWYRQAPGKERELVAAISWNGGSTYYADSVKGRFTISRDNAKNTVYLQMNSLKPEDTAVYYCAARYYAAGIGSRYDYWGQGTQVTVSS | high polyreactivity
13 | QVQLVESGGGLVQAGGSLRLSCAASGRTFKYYAMGWYRQAPGKERELVASISRSGGITYYADSVKGRFTISRDNAKNTVYLQMNSLKPEDTAVYYCAARYSVRPISIYPFDFGYWGQGTQVTVSS | low polyreactivity
14 | QVQLVESGGGLVQAGGSLRLSCAASGRTFKYYAMGWYRQAPGKERELVATISFRGGSTYYADSVKGRFTISRDNAKNTVYLQMNSLKPEDTAVYYCAATTPYYTPRRRNDYWGQGTQVTVSS | high polyreactivity
15 | QVQLVESGGGLVQAGGSLRLSCAASGRTFKYYAMGWYRQAPGKERELVATITWSGTSTNYADSVKGRFTISRDNAKNTVYLQMNSLKPEDTAVYYCAARSKRRNYDYWGQGTQVTVSS | high polyreactivity
16 | QVQLVESGGGLVQAGGSLRLSCAASGRTFLAYTMGWYRQAPGKEMELVAAISTPGGSTYYADSVKGRFTISRDNAKNTVYIQMNSLKPEDTAVYYCAAADSTWFDWGNYWYYYWGQGTQVTVSS | low polyreactivity
17 | QVQLVESGGGLVQAGGSLRLSCAASGRTFLENAMGWYRQAPGKERELVAAISWRGGNTHYADSVKGRFTISRDNAKNTVYLQMNSLKPEDTAVYYCNAVNYRNKYDYWGQGTQVTVSS | high polyreactivity
18 | QVQLVESGGGLVQAGGSLRLSCAASGRTFLINAMGWYRQAPGKERELVAAINYGGGSTYYADSVKGRFTISRDNAKNTVYLQMKSLKPEDTAVYYCSTEYYDTYVGSYSYWGAKYGSWGQGTQVTVSS | low polyreactivity
19 | QVQLVESGGGLVQAGGSLRLSCAASGRTFLLYAMGWYRQAPGKERELVAAISRGGGSTFYADTVKGRFTLSRDNAKNTVYLQRNSLKPDDTAVYYCAAYGRYYYIYDYCGQGTQVTVSS | high polyreactivity
20 | QVQLVESGGGLVQAGGSLRLSCAASGRTFLQYGMGWYRQAPGKERELVAAITTSGGDTYYADSVKGRFTISRDNAKNTVYLQMNSQKPEDTAVYYCNAEPRYGTYDYWGQGTQVTVSA | low polyreactivity
21 | QVQLVESGGGLVQAGGSLRLSCAASGRTFLRYAMGWSRQAPGKERELVAAISSRGGRTYYADSVKGRFTISRDNAKNTVYLQMNILKPEDTAVYYCNARYSPRTGRGRHVTYYYWGQGTQVTVSS | high polyreactivity
22 | QVQLVESGGGLVQAGGSLRLSCAASGRTFLSYMGWYRQAPGKERELVAISRSGTSTYYADSVKGRFTISRDNAKNTVYLQMNSLKPEDTAVYYCAATRRYPQYRGYDYWGQGTQVTVSS | high polyreactivity

Row | Sequence | polyreactivity (PSR sort gate)
23 | QVQLVESGGGLVQAGGSLRLSCAASGRTFLTNPMGWYRQAPGKETELVAVITSSGGTYYADSVKGRFSISRDNAKNTVYLQMNSLKPEYTEVYYCNTRQQFTLTRGVFLHNYWGQGTQVTVSS | high polyreactivity
24 | QVQLVESGGGLVQAGGSLRLSCAASGRTFLVNAMGWYRQAPGKEREFVAAITSRSGRTNYADSVKGRFTISRDNAKNTVYLQSNSLKPEDTAVYYCNAEGYTVKYWYSRYDYWGQGTQVTVSS | high polyreactivity
25 | QVQLVESGGGLVQAGGSLRLSCAASGRTFLVYAMGWYRQAPGKERELVADITSGGSTDYADSVKGRFTISRDNAKNTVYLQMNSLKPEDTAVYYCATDLWRWYGWFDYWGQGTQVTVSS | low polyreactivity
26 | QVQLVESGGGLVQAGGSLRLSCAASGRTFLVYTMGWYRQAPGKERELVAAISWSDGSTYYADSEKGRFTISRDNAKNTVYLQMNSLKPEDTAVYYCAARRTGYLYRYGYWGQGTQVTVSS | low polyreactivity
27 | QVQLVESGGGLVQAGGSLRLSCAASGRTFLWNAMGWYRQAPGKERELVARINLSGGRTYYADSVKGRFTISRDNAKNTVYLQMNSLKPEDTAVYYCAATVVRYRRDSWGQGTQVTVSS | low polyreactivity
28 | QVQLVESGGGLVQAGGSLRLSCAASGRTFLYYAKGWYRQAPGKERELGAAISSGGSTNYADSVKGRFTISRDNAKNTVYLQMNSLKPEDTAVYYCNADYTSRDTSDVIYEYDYWGQGTQVTVSS | low polyreactivity
29 | QVQLVESGGGLVQAGGSLRLSCAASGRTFLYYAMGWYRQAPGKERELVAAIRRGSSTYYADSVKGRFTISRDNAKNTVYLQMNSLKPEDTAVYYCNKVYYAFRVSLYRYGYWGQGTQVTVSS | high polyreactivity
30 | QVQLVESGGGLVQAGGSLRLSCAASGRTFLYYAMGWYRQAPGKERELVAAISSGADSTYYADSVKGRFTISRDNAKNTVYLQMNSLKPEDTAVYYCAAGGSHDGVWDDYWGQGTQVTVSS | high polyreactivity
31 | QVQLVESGGGLVQAGGSLRLSCAASGRTFLYYTMGWYRQAPGTERELVATINYSGGRTYYADSVKGRFTISRDNANNTVYFQMNSLKPVATAVYFWAKSGRALWWYDYWGQGTQVTVSS | high polyreactivity
32 | QVQLVESGGGLVQAGGSLRLSCAASGRTFNAYAMGWYRLAPWKERELVAAISSGGSTYYADSVKGRFTISRDNAKNTVYLQMNSLKQEDTAVYYSNKVYGWRQFDYWGNGTQVTVSS | high polyreactivity
33 | QVQLVESGGGLVQAGGSLRLSCAASGRTFNFNTMGWYRQAPGKEREFVAAITFRGVRTYYADSVKGRFTISRDNAKNTVYLQMNSLKPEDTAVYYCAADAPRSYRFGYWGQGTQVTVSS | high polyreactivity
34 | QVQLVESGGGLVQAGGSLRLSCAASGRTFNGYALGSSRQAPGKERELVAAISGRGRSTRYADSVKGRFTISRDNAKNTVYLQMNSLNPEDTAVYYCNARGYSETQREYDSWGQGTQVTVSS | high polyreactivity
35 | QVQLVESGGGLVQAGGSLRLSCAASGRTFNKYAMGWYRQAPGKERELVAAIRDGSGGRTNYADSVKGRFTISRDNAKNTVYLQMNSLKPEDTAVYYCNADDSKYPYYTDDYWGQGTQVTVSS | low polyreactivity
36 | QVQLVESGGGLVQAGGSLRLSCAASGRTFNPNAMGWYRQAPGKERELVAAISSSGGSTYYADSVKGRFTISRDNAKNTVYLQMNSLKPEDTAVYYCAAVHKWYLYYYWGQGTQVTVSS | high polyreactivity
37 | QVQLVESGGGLVQAGGSLRLSCAASGRTFNPYTMGWYRQAPGKEREFVATIRKSSGGTYYADSVKGRFTISRDTAKNTVYLQMNSLKPEDTAVYYCAAVGNGGMDYWGQGTQVTVSS | low polyreactivity
38 | QVQLVESGGGLVQAGGSLRLSCAASGRTFNQYAMGWYRQAPGKERELVAAISRRTGRTYYADSVKGRFTISRDNAKNTVYLQMNSLKQEDTAVYYCAAGFTYLNYTPWYRFNYWGQGTQVTVSS | high polyreactivity
39 | QVQLVESGGGLVQAGGSLRLSCAASGRTFNRNAMGWYRPAPGKERELVAAISRGGGGTFYADSVKGRFTISRDNAKNTVYLQMNSLKPEDTAVYYCAVWQDHYDWGQGTQVTVSS | low polyreactivity
40 | QVQLVESGGGLVQAGGSLRLSCAASGRTFNRNAMGWYRQAPGKERELVASITSRGGSTYYADSVKGRFTISRDNAKNTVYLQMNSLKPEDTAVYYCNATPKFFGRYWGYDYWGQGTQVTVSS | high polyreactivity
41 | QVQLVESGGGLVQAGGSLRLSCAASGRTFNRYAMGWYRQAPGKERELVAAISWRGDSTYYADSVKGRFTISRDNAKNTVYLQMNSLKPEDTAVYYCAARGNFWGQGTQVTVSS | high polyreactivity
42 | QVQLVESGGGLVQAGGSLRLSCAASGRTFNRYAMGWYRQAPGKERELVAAISWSGGRTYYADSVKGRFTISRDNAKNTVYLQMNSMIPEATAVYYCAKEAYFRYDYCGQGTQVTVSS | low polyreactivity
43 | QVQLVESGGGLVQAGGSLRLSCAASGRTFNSNAMGCYRQAPGKERELVARISRGASTYYADSVKGRFTISRDNAKNTVYLQMNSLKPEDTAVYYCAKRRRSAAPKYDYWGQGTQVTVSS | high polyreactivity
